According to CN110760483A (UNIV YANGZHOU, dated 2020):

Columns and labels:
[1] = target: T1, rHis-BoTNF-α (pET-30a(+)-BoTNF-α, E. coli BL21(DE3)) (牛 (bovine), UniProt Q06599 78-234); assay: Western blot with HRP-3C1 1:1000
T1 construct: Own construct; also called rHis-BoTNF-α纯化蛋白; not shown: N-terminal His tag and vector residues of pET-30a(+) up to the BamHI site
T1 sequence (looked up): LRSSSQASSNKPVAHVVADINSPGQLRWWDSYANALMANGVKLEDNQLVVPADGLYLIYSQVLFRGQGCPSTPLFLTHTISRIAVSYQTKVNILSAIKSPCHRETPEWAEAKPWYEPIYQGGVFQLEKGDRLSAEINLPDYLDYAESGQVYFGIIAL

[2] = target: T2, rBoIL-2 (Kingfisher-Biotech公司, rp0026B-005) (UniProt P05016 21-155); assay: indirect ELISA, coated protein, 3C1 hybridoma supernatant
T2 construct: Commercial protein
T2 sequence (looked up): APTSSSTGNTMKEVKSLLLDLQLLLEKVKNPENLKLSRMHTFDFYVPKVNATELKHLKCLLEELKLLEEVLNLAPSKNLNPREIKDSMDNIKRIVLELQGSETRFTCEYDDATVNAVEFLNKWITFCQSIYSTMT

[3] = target: T3, rBoIFN-γ (美国R&D公司, 2300-BG-02) (UniProt P07353 24-166); assay: as above
T3 construct: Commercial protein; species read from the label Bo
T3 sequence (looked up): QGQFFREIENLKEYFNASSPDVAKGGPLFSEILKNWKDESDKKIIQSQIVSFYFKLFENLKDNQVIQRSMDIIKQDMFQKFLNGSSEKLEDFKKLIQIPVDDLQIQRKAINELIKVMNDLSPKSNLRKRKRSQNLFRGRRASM

[4] = target: T4, rPoTNF-α (美国R&D公司, 690-PT-025) (UniProt P23563 77-232); assay: as above
T4 construct: Commercial protein
T4 sequence (P23563 77-232 limits assumed): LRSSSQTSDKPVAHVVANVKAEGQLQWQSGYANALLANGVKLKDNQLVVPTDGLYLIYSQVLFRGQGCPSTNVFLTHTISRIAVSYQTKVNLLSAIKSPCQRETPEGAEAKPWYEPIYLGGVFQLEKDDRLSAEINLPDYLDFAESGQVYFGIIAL

[5] = target: T5, rhuTNF-α (PeproTech, 300-01A-50) (UniProt P01375 77-233); assay: as above
T5 construct: Commercial protein
T5 sequence (P01375 77-233 limits assumed): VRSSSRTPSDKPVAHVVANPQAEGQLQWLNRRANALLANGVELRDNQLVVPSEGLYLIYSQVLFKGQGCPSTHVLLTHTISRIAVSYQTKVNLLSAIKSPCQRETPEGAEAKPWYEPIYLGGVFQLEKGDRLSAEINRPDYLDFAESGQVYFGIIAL

[6] = target: T6, 商品化rBoTNF-α (美国R&D公司, 2279-BT-025) (牛 (bovine), UniProt Q06599 78-234); assay: indirect ELISA, protein coated at 0.5μg/mL, 3C1 hybridoma supernatant
T6 construct: Commercial protein
T6 sequence (looked up): T1 sequence (looked up)

[7] = target: T7, 天然羊TNF-α (羊外周血单核细胞) (羊 (sheep)) (UniProt P23383); assay: intracellular flow cytometry, PMA/ionomycin-stimulated sheep PBMC, FITC-3C1 0.5μg/mL
T7 sequence (looked up): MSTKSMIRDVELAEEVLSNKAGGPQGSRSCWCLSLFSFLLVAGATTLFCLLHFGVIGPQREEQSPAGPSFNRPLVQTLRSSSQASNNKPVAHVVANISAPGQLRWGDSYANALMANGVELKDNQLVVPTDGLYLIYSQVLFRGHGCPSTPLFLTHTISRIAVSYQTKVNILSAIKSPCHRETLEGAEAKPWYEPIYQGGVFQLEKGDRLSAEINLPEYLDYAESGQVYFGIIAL

[8] = target: T8, 天然牛TNF-α (牛外周血单核细胞) (牛 (bovine)) (UniProt Q06599); assay: intracellular flow cytometry, PMA/ionomycin-stimulated bovine PBMC, FITC-3C1 0.5μg/mL
T8 sequence (looked up): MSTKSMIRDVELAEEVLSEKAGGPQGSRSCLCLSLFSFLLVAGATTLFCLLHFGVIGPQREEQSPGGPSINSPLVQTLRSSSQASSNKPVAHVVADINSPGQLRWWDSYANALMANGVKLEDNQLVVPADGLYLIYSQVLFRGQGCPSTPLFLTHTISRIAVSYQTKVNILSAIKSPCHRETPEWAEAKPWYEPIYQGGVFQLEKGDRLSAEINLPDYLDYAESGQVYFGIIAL

[9] = target: T7, 天然羊TNF-α (羊外周血单核细胞) (羊 (sheep)); assay: intracellular flow cytometry, unstimulated sheep PBMC (control well), FITC-3C1 0.5μg/mL
[10] = target: T8, 天然牛TNF-α (牛外周血单核细胞) (牛 (bovine)); assay: intracellular flow cytometry, unstimulated bovine PBMC (control well), FITC-3C1 0.5μg/mL
[11] = target: T9, rGST-BoTNF-α (pGEX-6p-1-BoTNF-α, E. coli BL21) (牛 (bovine)) (UniProt Q06599); assay: indirect ELISA, rGST-BoTNF-α coated at 0.5μg/mL, serially diluted 3C1 ascites, cut-off P/N≥2.1
T9 sequence (looked up): T1 sequence (looked up)

B1: 单克隆抗体3C1 (具牛、羊交叉反应的抗TNF-α单克隆抗体, 杂交瘤 CCTCC NO:C2019129) (antibody, V domains shown)
VH: QVQLKQSGPGLVQPSQSLSITCTVSGFSLTNFSVHWVRQPPGKGLEWLGVMWSGGSTDYNAAFISRLSIIKDNSKSQVFFKMNGLQADDTAIYYCARSGPYYYSLDYWGQGTSVTVSS
VL: DIQMTQSPASLSASVGETVTITCRASENIYIYLAWYQQKQGKSPQLLVYNAKTLAEGVPSRFSGSGSGTQFSLNINSLQPEDFGSYYCQHHYGTPWTFGGGTKLEIK
notes: Used as ascites, hybridoma supernatant, HRP-labelled (HRP-3C1) or FITC-labelled (FITC-3C1) antibody, depending on the assay; also called mAb 3C1; MAb 3C1
B1: binds [1]; no binding (tested: 0.5μg/mL (coating)) [2]; no binding (tested: 0.5μg/mL (coating)) [3]. B1: no binding (tested: 0.5μg/mL (coating)) [4]; no binding (tested: 0.5μg/mL (coating)) [5]; binds [6]. For the same binder, the 分泌羊TNF-α细胞比例 (percent stained cells) [7] was 13.4%, the 分泌牛TNF-α细胞比例 (percent stained cells) [8] was 18.4% and the 分泌羊TNF-α细胞比例 (percent stained cells) [9] was 0.027%. It also gave a 分泌牛TNF-α细胞比例 (percent stained cells) [10] of 0.051% and a 效价 (ascites titre) (dilution (1:x)) [11] of 1.31e+07.
